Source: the supplement of paper PMC12636428

Test system: Saccharomyces cerevisiae
Assay: transcriptional activation domain activity (GFP:mCherry ratio, weighted mean of sorted bins, harmonized to initial dataset scale) (arbitrary fluorescence ratio units); higher = stronger transcriptional activation
Conditions: beta-estradiol 1 µM; induction time 4 h
In short: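 The listed activation activity is a read-weighted mean of bin median fluorescence, averaged across barcodes and linearly mapped onto the initial dataset scale. Barcoded tiles, fused to an estradiol-inducible synthetic transcription factor, were integrated at URA3 in yeast diploids bearing a GFP reporter. Cells were held 4 hours at 30 °C in SC with 1 uM beta-estradiol, sorted into 8 GFP:mCherry bins, and sequenced, and tiles with fewer than 50 reads were excluded.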

Row | Sequence | transcriptional activation domain activity
1 | FDQYLFESISGLILRVQFIGGALPDSISIFEPTLFPPFTEILQGDIDQYIPYV | 51300
2 | EKEESDEDESEKGSAAGGRGKAALKTWVKRVRLIRDKGTLLGKGFGYVQFNDR | 69000
3 | ADALSARSPKKGKKGKKGKKGKKGKKGKKAGAAAAAAGGAAGANGAKAAGAKA | 33300
4 | TKFYPNKSIETQLMKNKYCDVVHLTRYAAWSNNKKDQDTSSQPLIDEIFGLYS | 61500
5 | RAKNRAKEEESAAQQKQAQHQQHQQHQQHRQGEEAGSAGRAEAAAAAAAAGAD | 26200
6 | MTLTFWFFLPLLDILSGLKFEFLPMLVFYFYFFPFASFCRFEALDIWTWILII | 48100
7 | EDEAQGEEGEKAKKSRKRKRDEAAEGGKQKKEKAPPKPRAKKGSAEPKPKKAA | 25900
8 | PAEATVAITNVLYVVQKYYPGSHNLITLLLAIRCVMFTVFRFVAAPLCVTHAL | 46700
9 | KAMGLLDSARIVSWHVSYSLVHLPSWISFAIIYKVRLFVKTNILILLVVHVLF | 41600
10 | MCVLHHLSHTLCFALFCYVIEAFRFTSYLLLLPFWRFYVLVVIPLFIHISYVF | 52500
11 | LCAPIEVFRNICLPFVRLLHPLFFLSLLVFVEIIFPLFIPLTLLHCFLVLFGV | 55100
12 | DDSAASHAESKEARDGANEADTSSTGGEADSALKESNTKAERRQDKKEEEASG | 34100
13 | RARAHRPKRGGRGRGRGTGTNAREGGGREEGKKKNRKKKTKTKTKTKTKTKKR | 36600
14 | MPHLCVSVCLFLVLVMKRWLHVCRDIICRSLSWPEYEFSHFCSLIMRVLMLLL | 76300
15 | SFSVLNLNLGKIENDGNESNEDYLGNEKFYLNEILPDEESKLRWKRVFENSEN | 52600
16 | NANNANTNANANNNAATTNANANGNGKKGKNNNNNANANANANANAAAAAAAG | 18400
17 | LAEEEGEEEEGESVTPTDDKIIVKLRGKDNTDTSLRVKQTTLIRSVISSYKKI | 64100
18 | KREDIVRVVNGIFCCYILTFSLFFLFFLVYPSLCFLCLFPLCGVLSFFYLYFP | 20900
19 | MFYYIYLFSFFFIIVLPLPLSLCTFLHPLLLDCNFTLVAFFFCLLLFYVCHFF | 28800
20 | SQVNKGKVQVWVMYFSFSFFFLFFIHLVCWFLLFCFFFFFVPFIIPLFFFFFL | 32300
21 | PNGLMDPVLSTTNVSATSSNDNSANNSISSPEYTFGQFSMDSPHRTDATNTPI | 23000
22 | MFFLPFGIFFFFACFFSLFTFADSWLAVFLPDRFLLSFVLFNFAFFFFFFTTL | 31900

Row | Sequence | transcriptional activation domain activity
23 | LFSPFPPSISFPLSSHSSLPPLFPPLFPPLFPPFLPSLCFPLFPSLPFPPLPL | 19500
24 | CWVVWGRRWLIVLLPIICLITATVSKVLQVYLVNSNAYMLYEVFLMLYISFVL | 44100
25 | IIQKLCFITVKLFFTKYIPLQAILINLILIGYLMFVVRHFPYRYTTLNNLELI | 55000
26 | KRHAKRRRDKRKQKEKKNSKRDESSSASDSDRRSQSSSRRSRSSSAGSKRSTR | 17400
27 | QKLSWIDNSGFRWLIMPFIWSSFFIQWLAVFFEICIVILQLRVIAWWLGWLVC | 60700
28 | VALPCSFRGLLRFACVTWLKHLFGLISRVLDFQAWWGVQLHCLFLLGLMLLPP | 63500
29 | AREGARIRIVNRTVTVGKRTMSARSEVYDADNSRLVASGSHSKMTGSQPETRL | 17700
30 | DSKSDATPAWSDLKTKAGKERKRLPLACIVCRRKKIRCSGEKPACKHCLRARI | 41900
31 | LSRGSCFVFWIFFSVPPPLFPFIYSYIFFFSFLLWFSVFVSVVFSFFSFWFFF | 55700
32 | IYYDPASRDKVYCSRAPIAYVYKRLVRMALESRFVQVAPVALKVLGIVLVMLY | 62500
33 | LMLQRLDIIRQILYLYRDPHLQIVLNRYYKSFNRRKIFLMNPVINALSNMPYF | 47500
34 | SGNPPNVVMPPIVCPYSPIIIISYVVTYFFLHHFGGLIGWLQFLSLLLQSLMV | 51000
35 | MWLFLLMFYIVLWLRKAGAFISSSFSSFSVLSFSYLFLCGYLPFSFLFLTFSL | 54200
36 | ANHQIYLDWWYTWCLAYFMDTHRDVCIVLKKSLKWVPIFGWAMHQFFNFIFLA | 41800
37 | MMHSLHPLSISILSLDFNLSYLLFVLPCHRIICSFFRLLAVLFHFFLFIGFYL | 60300
38 | SSSAESSKASSSKKVASTKPKSKSAGTKAKPAAKKPAKKAAPKKKKPAKRAAK | 34500
39 | DTMIRLFVGWLEEDPSSDRVLPRVHLGEIGIPVKLDLSSPSAVLVVSRLLCSL | 74100
40 | ALRDSKSSDPKVKKEGEDFLAQLRIGKSYLHGLDAEGRPMCIVRARLHRAGEQ | 48900
41 | KIVKHVILAATWRTSSVQDSFYLLATWWIICWQFYFVSVYIFPLILIALLHYM | 60700
42 | TTTLTGRPPSTFSGPETSNGPPTGSLPSKFVHDLMSNSPNVSSISMFPDWSMG | 21600
43 | KLIYVRILGYLLHHMPSEAGLQQLVTEIVSFRTEEAFLKLGLLYFEHAIRLFR | 36800
